Data: US11851478

These binders were tested against Chikungunya virus (CHIKV), infectious virus of the focus reduction neutralization test (Chikungunya virus) (assay: cell-based or functional assay).

Binder | IC50 FRNT* (ng/mL) against CHIKV [ng/mL]
CHKV-29 (antibody, V domains shown) VH: EVQLVESGGVVVQPGGSLRLSCAASGFNFDDYTMHWVRQAPGKGLEWVSLITWDGLSTYYADSMKGRFTISRDNSKDSLYLQMDSLRTEDTAFYYCVRDMGPGAVHFYFYGMDVWGQGTLVTVSS VL: QSALTQPASVSGSPGQSITISCTGTSSDVGNYNLVSWYQQHPGKVPKLIIYEVSKRPSGISKRFSASKSGNTASLTISGLQAEDEADYYCCSYAGSSGVFGAGTKLTVL | 86
CHKV-31 (antibody, V domains shown) VH: EVQLVESGGGLVQPGGSLRLSCAASGFTFSNYAMSWVRQAPGKGLEWVSGISGSGRTTYYTDSVKGRFNISRDNTKNTLFLQMNSLRAEDTAVYYCVKDRAGWFGNYFDYWGQGTLVTVSS VL: DIQMTQSPSSLSASVGDRVTITCRASQGISNYLAWFQQKPGKAPKSLIYAASSLQSGVPSKFSGSRSGTNFTLTISSLQPEDFATYYCQQYNTYPPTFGQGTTVEIK | 684
CHKV-50 (antibody, V domains shown) VH: EVQLVESGGGLVQPGRSLRLSCAASGFTFDDYAMHWVRQAPGKGLEWVSGISWNSGFIGYADSVKGRFTISRDNAKNSLYLQMNSLRAEDTALYYCAKDLGRAYSSGWYLFDYWGQGTLVTVSS VL: SYVLTQPPSVSVAPGKTARITCGGNNIGSKSVHWYQQLPGQAPVLVVYDDSDRPSGIPERFSGSNSGYTATLIISRVEAGDEADYYCQVWDSTSDHACVFGPGTKVTVL | 2270
CHKV-24 (antibody, V domains shown) VH: QVQLVESGGGVVQPGKSLRLSCAASGFTFRNYGMHWVRQAPGKGLDWVALISYDGTHKYYKDSLKGRFTISRDNFQNTVDLQINSLRPDDTAVYYCAKELATSGVVEPLDSWGQGTLVTVSS VL: EIVLTQSPGTLSLSPGERATLSCRASQSLVSSYFGWYQQKRGQSPRLLIYAASTRATGIPDRFSGSGSGTDFTLTISRLEPEDFAVYYCQQYGNTPFTFGGGTKVEIK | 4
CHKV-35 (antibody, V domains shown) VH: EVQLVESGGGLVPPGGSLRVSCAASGFTLRSYVMAWVRQAPGKGLEWVSGISGDGDHTYYADSVKGRFTISRDNSKNTLYLQMHSLRAEDTALYYCVKDWGIRGIYYPSGMDVWGQGTTVIVSS VL: SLELAQPPSVSVSPGQTARITCSGDGLPQAYAYWYQKKPGQAPVPLIYKDTERPSGIPERFSGSSSGTTVTLTISGVQAEDEADYYCQSADSIGTNVIFGGGTKLTVL | 11
CHKV-48 (antibody, V domains shown) VH: QVQLQESGPGLVKPSQTLSLTCAVSGGSISSGGYSWSWIRQPPGKGLEWIGYIYYSGSTYYNPSLKSRLTISMDTSKNHFSLKLSSVTAADTAVYYCATDYCSSTSCNTGAPVNWGQGTLVTVSS VL: DIQLTQSPSFLSASVGDRVTITCRASQGISSYLAWYQQKPGKAPKLLINAASTLQSGVPSRFSGSGSGTEFTLTISSLQPEDFATYYCQQFNAYPYTFGQGTKLEIK | 37
CHKV-32 (antibody, V domains shown) VH: QVQLVQSGAEVKKPGASVKVSCKASGYTFTTFAMHWVRQAPGQGLECMGWINTANGYTKYSQKFQGRVTITSDTSASTASMELSSLTSKDTAVYYCARVQDFGHYEGGYGYWGQGTLVTVSS VL: QSVLTQPPSVSGAPGQRVIISCTGSSSNIGAGYDVHWYQQLPGTAPKLLIYGNSYRPSGVPDRFSGSRSGTSASLAITGLQAEDEADYYCQSHDSSLNDFNVFGSGTKVTVL | 81
CHKV-53 (antibody, V domains shown) VH: QLQLQESGPGLVKPSETLSLTCTVSGGSISSTSHYWGWIRQPPGKGLEWIGNIYYSGSTYYKSSLKSRVAISVDTSKNQFSLKLSSVTAADTAVYFCARVVVGGYYDNRGYYRGPPTPLYYFDYWGQGTLVTVSS VL: DIQMTQSPSSVSASVGDRVTISCRASPGISTWLAWYQQKPGKAPKLLIYAVSSLQSGVPSRFSGSGSGTDFTLTISSLQPEDFATYYCQQANSLSWTFGQGTKVEIK | 319
CHKV-27 (antibody, V domains shown) VH: QVQLVQSGAEVKKPGASVKVSCKPSGYNFIDYAMHWVRQAPGQRLEWMGWINAANDNREYSQKFQGRVTLTRDTSATTAYMELSSLTFEDTAVYYCARDRGTMVRGVGGWFDPWGQGTLVTVSS VL: SYVLTQPPSVSVAPGETARITCGGNNIGSKSVHWYQQKPVQAPVVVVYDDSDRPSGIPERFSGSNSGNTATLTISRVEAGDEADYYCQVWDSSSNHPVFGGGTKVAVL | 17
